This note sets out measurements from patent US20160032005A1 (INSERM INSTITUT NATIONAL DE LA SANTE ET DE LA RECHERCHE …, published 2016).

The labels stand for the following.
B1: Vangl2 in COS-7 cells (receptor)
chain: MDTESQYSGYSYKSGHSRSSRKHRDRRDRHRSKSRDGGRGDKSVTIQAPGEPLLDNESTRGDERDDNWGETTTVVTGTSEHSISHDDLTRIAKDMEDSVPLDCSRHLGVAAGATLALLSFLTPLAFLLLPPLLWREELEPCGTACEGLFISVAFKLLILLLGSWALFFRRPKASLPRVFVLRALLMVLVFLLVVSYWLFYGVRILDARERSYQGVVQFAVSLVDALLFVHYLAVVLLELRQLQPQFTLKVVRSTDGASRFYNVGHLSIQRVAVWILEKYYHDFPVYNPALLNLPKSVLAKKVSGFKVYSLGEENSTNNSTGQSRAVIAAAARRRDNSHNEYYYEEAEHERRVRKRRARLVVAVEEAFTHIKRLQEEEQKNPREVMDPREAAQAIFASMARAMQKYLRTTKQQPYHTMESILQHLEFCITHDMTPKAFLERYLAAGPTIQYHKERWLAKQWTLVSEEPVTNGLKDGIVFLLKRQDFSLVVSTKKVPFFKLSEEFVDPKSHKFVMRLQSETSV
notes: Vangl2 immunoprecipitated with 2G4 mAb from COS-7 cells

Experiment [1] deals with GFP-p62 with deletion of a region containing the LIR domain (256-370) (Homo sapiens, UniProt P42212 1-238 = GFP). Kind of experiment: immunoprecipitation with 2G4 mAb, COS-7 cells.
The experiment “Vangl2 in COS-7 cells” deals with B1. As to the kind of experiment: immunoprecipitation with 2G4 mAb, COS-7 cells.

Turning to B1, the binding result in experiment [1] is “no binding”.

B2: EGFP-tagged p62 (1-122), PB1 domain alone (other)
chain: MASLTVKAYLLGKEDAAREIRRFSFCCSPEPEAEAEAAAGPGPCERLLSRVAALFPALRPGGFQAHYRDEDGDLVAFSSDEELTMAMSYVKDDIFRIYIKEKKECRRDHRPPCAQEAPRNMV
notes: not shown: EGFP tag
Turning to B2, the binding result with Vangl2 in COS-7 cells is “no binding”.
